These results are taken from publication PMC5750471.

B1: TREM2 (triggering receptor expressed on myeloid cells 2) with a Myc-tag at the C terminus, wild type [human] / presenilin 1 (PS1), wild type [not stated] (parent)
chain 1: HNTTVFQGVAGQSLQVSCPYDSMKHWGRRKAWCRQLGEKGPCQRVVSTHNLWLLSFLRRWNGSTAITDDTLGGTLTITLRNLQPHDAGLYQCQSLHGSEADTLRKVLVEVLADPLDHRDAGDLWFPGESESFEDAHVEHSISRSLLEGEIPFPPTSILLLLACIFLIKILAASALWAAAWHGQKPGTHPPSELDCGHDPGYQLQTLPGLRDT
chain 2: not shown

In the assay the parent is B1. As to the kind of experiment: co-immunoprecipitation with PS1 antibody Ab14, immunoblot band quantification. Particulars: with presenilin 1 (PS1), HEK293 cells stably expressing Myc-tagged TREM2, transfected with PS1, n=3, read off a plot. A general note: In western blotting, separated proteins are transferred to a membrane and probed.
Consider chain 1 R29H, for which the ratio to parent (arbitrary unit) worked out at 1.2.

Take chain 1 T78K: the ratio to parent (arbitrary unit) was 1.2. As for chain 1 T48M, the ratio to parent (arbitrary unit) came out at 0.68.
